T1: WT-GFP-ERK2, P63086
T1 chain: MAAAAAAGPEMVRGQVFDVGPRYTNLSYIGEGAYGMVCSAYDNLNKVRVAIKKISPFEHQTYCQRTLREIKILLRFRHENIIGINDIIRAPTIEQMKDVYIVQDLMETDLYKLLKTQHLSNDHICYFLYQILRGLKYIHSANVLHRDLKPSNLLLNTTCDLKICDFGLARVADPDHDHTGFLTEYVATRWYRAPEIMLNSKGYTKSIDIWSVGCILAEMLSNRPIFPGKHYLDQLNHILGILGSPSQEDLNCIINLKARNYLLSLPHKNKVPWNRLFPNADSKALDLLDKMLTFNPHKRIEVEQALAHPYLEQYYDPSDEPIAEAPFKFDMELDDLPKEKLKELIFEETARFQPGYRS

T2: APA-GFP-ERK2, P63086
T2 chain: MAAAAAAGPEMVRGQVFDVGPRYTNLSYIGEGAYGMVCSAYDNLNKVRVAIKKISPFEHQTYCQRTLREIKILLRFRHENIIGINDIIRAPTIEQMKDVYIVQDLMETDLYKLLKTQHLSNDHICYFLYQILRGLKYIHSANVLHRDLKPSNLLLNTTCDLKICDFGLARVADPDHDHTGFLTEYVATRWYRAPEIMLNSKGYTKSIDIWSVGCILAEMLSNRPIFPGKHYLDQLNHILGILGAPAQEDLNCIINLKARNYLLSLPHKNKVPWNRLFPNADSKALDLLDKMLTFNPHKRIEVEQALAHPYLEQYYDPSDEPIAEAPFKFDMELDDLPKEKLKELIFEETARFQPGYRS

T3: TEY-AAA-ERK2, P63086
T3 chain: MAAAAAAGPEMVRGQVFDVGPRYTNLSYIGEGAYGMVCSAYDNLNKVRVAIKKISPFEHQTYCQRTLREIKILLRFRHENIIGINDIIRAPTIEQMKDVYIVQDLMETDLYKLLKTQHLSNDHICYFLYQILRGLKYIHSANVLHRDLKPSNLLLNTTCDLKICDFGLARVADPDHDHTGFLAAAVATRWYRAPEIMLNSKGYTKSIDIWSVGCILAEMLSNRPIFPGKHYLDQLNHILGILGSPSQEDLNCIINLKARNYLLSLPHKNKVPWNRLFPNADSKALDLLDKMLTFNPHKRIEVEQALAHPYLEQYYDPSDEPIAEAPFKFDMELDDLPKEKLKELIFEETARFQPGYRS


Columns and labels:
WT-GFP-ERK2, P63086 = target: T1, WT-GFP-ERK2, P63086
APA-GFP-ERK2, P63086 = target: T2, APA-GFP-ERK2, P63086
TEY-AAA-ERK2, P63086 = target: T3, TEY-AAA-ERK2, P63086
importin-β = target: T4, importin-β (UniProt Q14974 1-876); assay: co-immunoprecipitation with anti GFP Ab from HeLa cells, Western blot with anti importin-β Ab
T4 construct: also called Impβ
Experimental: FIG. 9A. […] The extracts of the treated cells were then subjected to coimmunoprecipitation using A/G beads pre-conjugated with anti GFP Ab and mild washes. […] The equal amount of immunoprecipitated ERKs was determined with anti GFP (αGFP; IP) Ab. FIG. 19B. […] HeLa cells overexpressing 2GFP, 2GFP-SPS, 2GFP-APA and 2GFP-EPE constructs were subjected to coimmunoprecipitation as described in FIG. 19A (without EGF stimulation). FIG. 19C. […] This was followed by mild washing, and the beads were then subjected to Western blot analysis using anti His (αHis) and anti αGFP Abs.

binding result (importin-β) | Binder | ^32P incorporation, in vitro kinase assay (WT-GFP-ERK2, P63086) | ^32P incorporation, in vitro kinase assay (reduction against GFP-ERK2) (APA-GFP-ERK2, P63086) | ^32P incorporation, in vitro kinase assay (reduction against GFP-ERK2) (TEY-AAA-ERK2, P63086)
– | active GST-ERK2 (protein) MAAAAAAGPEMVRGQVFDVGPRYTNLSYIGEGAYGMVCSAYDNLNKVRVAIKKISPFEHQTYCQRTLREIKILLRFRHENIIGINDIIRAPTIEQMKDVYIVQDLMETDLYKLLKTQHLSNDHICYFLYQILRGLKYIHSANVLHRDLKPSNLLLNTTCDLKICDFGLARVADPDHDHTGFLTEYVATRWYRAPEIMLNSKGYTKSIDIWSVGCILAEMLSNRPIFPGKHYLDQLNHILGILGSPSQEDLNCIINLKARNYLLSLPHKNKVPWNRLFPNADSKALDLLDKMLTFNPHKRIEVEQALAHPYLEQYYDPSDEPIAEAPFKFDMELDDLPKEKLKELIFEETARFQPGYRS | ^32P incorporation to GFP-ERK2 was detected mainly when this protein was incubated with Act-ERK2 | that of SPS-APA was reduced by ˜80% | The phosphorylation of TEY-AAA was reduced by ˜25%
no binding | WT-GFP-ERK2 (enzyme, UniProt P63086 1-358, looked up, SPS domain (Ser244, Ser246) and TEY motif phosphorylated upon stimulation of the cells (EGF, TPA, VOOH); the state depends on the cell treatment named in each row, Overexpressed in HeLa or COS7 cells and immunoprecipitated with anti GFP Ab; also called WT-ERK2; WT-ERK; not shown: GFP encoded by pEGFP C1 (Clontech)) MAAAAAAGPEMVRGQVFDVGPRYTNLSYIGEGAYGMVCSAYDNLNKVRVAIKKISPFEHQTYCQRTLREIKILLRFRHENIIGINDIIRAPTIEQMKDVYIVQDLMETDLYKLLKTQHLSNDHICYFLYQILRGLKYIHSANVLHRDLKPSNLLLNTTCDLKICDFGLARVADPDHDHTGFLTEYVATRWYRAPEIMLNSKGYTKSIDIWSVGCILAEMLSNRPIFPGKHYLDQLNHILGILGSPSQEDLNCIINLKARNYLLSLPHKNKVPWNRLFPNADSKALDLLDKMLTFNPHKRIEVEQALAHPYLEQYYDPSDEPIAEAPFKFDMELDDLPKEKLKELIFEETARFQPGYRS | – | – | –
no binding | APA-GFP-ERK2 (enzyme, UniProt P63086 1-358, looked up, also called GFP-ERK244/6A; ERK-AA; not shown: GFP encoded by pEGFP C1 (Clontech)) MAAAAAAGPEMVRGQVFDVGPRYTNLSYIGEGAYGMVCSAYDNLNKVRVAIKKISPFEHQTYCQRTLREIKILLRFRHENIIGINDIIRAPTIEQMKDVYIVQDLMETDLYKLLKTQHLSNDHICYFLYQILRGLKYIHSANVLHRDLKPSNLLLNTTCDLKICDFGLARVADPDHDHTGFLTEYVATRWYRAPEIMLNSKGYTKSIDIWSVGCILAEMLSNRPIFPGKHYLDQLNHILGILGAPAQEDLNCIINLKARNYLLSLPHKNKVPWNRLFPNADSKALDLLDKMLTFNPHKRIEVEQALAHPYLEQYYDPSDEPIAEAPFKFDMELDDLPKEKLKELIFEETARFQPGYRS | – | – | –
no binding | EPE-GFP-ERK2 (enzyme, UniProt P63086 1-358, looked up, also called GFP-ERK244/6E; ERK-EE; not shown: GFP encoded by pEGFP C1 (Clontech)) MAAAAAAGPEMVRGQVFDVGPRYTNLSYIGEGAYGMVCSAYDNLNKVRVAIKKISPFEHQTYCQRTLREIKILLRFRHENIIGINDIIRAPTIEQMKDVYIVQDLMETDLYKLLKTQHLSNDHICYFLYQILRGLKYIHSANVLHRDLKPSNLLLNTTCDLKICDFGLARVADPDHDHTGFLTEYVATRWYRAPEIMLNSKGYTKSIDIWSVGCILAEMLSNRPIFPGKHYLDQLNHILGILGEPEQEDLNCIINLKARNYLLSLPHKNKVPWNRLFPNADSKALDLLDKMLTFNPHKRIEVEQALAHPYLEQYYDPSDEPIAEAPFKFDMELDDLPKEKLKELIFEETARFQPGYRS | – | – | –

From patent US20100099627A1 (YEDA RESEARCH AND DEVELOPMENT, published 2010)
